Assay results reported in patent US20100076060.

Tests used:
[1] = target: T1, 4-1BB (CD137) extracellular portion (Mus musculus) (UniProt P20334); experiment: filter; settings: 2'-F pyrimidines
T1 sequence: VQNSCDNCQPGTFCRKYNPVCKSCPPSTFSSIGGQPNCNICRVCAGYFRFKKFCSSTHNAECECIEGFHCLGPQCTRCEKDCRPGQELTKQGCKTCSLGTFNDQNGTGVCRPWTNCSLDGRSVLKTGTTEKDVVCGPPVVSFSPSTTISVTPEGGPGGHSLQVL

[2] = target: 4-1BB (CD137) extracellular portion (Homo sapiens) (UniProt Q07011); experiment: filter; settings: 2'-F pyrimidines; alternating mouse/human selection pool
Sequence of 4-1BB (CD137) extracellular portion (Homo sapiens) (Q07011 24-186): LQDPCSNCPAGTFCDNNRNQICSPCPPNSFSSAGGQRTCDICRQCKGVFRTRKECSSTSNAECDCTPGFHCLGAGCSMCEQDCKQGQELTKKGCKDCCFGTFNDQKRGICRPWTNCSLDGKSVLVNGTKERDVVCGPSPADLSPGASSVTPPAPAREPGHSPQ

For “GGGAGAGAGGAAGAGGGAUGGGNNNNNNNNNNNNNNNNNNNNNNNNNNNNNNNNNNNNNNNNCAUAACCCAGAGGUCGAUAGUACUGGAUCCCCCC [mouse/human 4-1BB alternating selection final pool]”, the Kd ([1]; alternating mouse/human selection pool) was 200 nM and the Kd [2] was 23 nM.
“GGGAGAGAGGAAGAGGGAUGGGNNNNNNNNNNNNNNNNNNNNNNNNNNNNNNNNNNNNNNNNCAUAACCCAGAGGUCGAUAGUACUGGAUCCCCCC [mouse 4-1BB selection round 12 pool]” was tested, and the Kd ([1]; round 12 pool) was 50 nM.
